The text below walks through data of article PMC7643134.

The target of the experiment is Hydroxynitrile lyase from Parafontaria laminata millipedes, purified from the millipedes (PlamHNL-N) (Parafontaria laminata). Put plainly: SEC.

As for “Hydroxynitrile lyase from Parafontaria laminata millipedes, purified from the millipedes (PlamHNL-N) (enzyme)”, the stoichiometry N (in general, a count of units in the complex or per binding partner) was 2.
